Assay results as given in article PMC10397247.
Blank lines part the entries; values can stand above or below the binder they belong to.

Key:
P8mS = target: T1, P8mS; test: two-hybrid library CCNG1;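 note: natural log of median RNA to DNA barcode read ratio; higher means stronger binding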
T1 chain: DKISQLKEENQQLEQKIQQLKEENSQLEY

P9mS = target: T2, P9mS; test: two-hybrid library CCNG1;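 note: natural log of median RNA to DNA barcode read ratio; higher means stronger binding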
T2 chain: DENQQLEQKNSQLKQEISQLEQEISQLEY

4H2758-AA = target: T3, 4H2758-AA; test: two-hybrid library CCmax; conditions: mean of both orientations;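 note: natural log of median RNA to DNA barcode read ratio; higher means stronger binding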
T3 chain: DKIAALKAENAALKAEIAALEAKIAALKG

4H3134-AA = target: T4, 4H3134-AA; test: two-hybrid library CCmax; conditions: mean of both orientations;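 note: natural log of median RNA to DNA barcode read ratio; higher means stronger binding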
T4 chain: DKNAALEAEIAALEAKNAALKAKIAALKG

4H2646-AA = target: T5, 4H2646-AA; test: two-hybrid library CCmax;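 note: natural log of median RNA to DNA barcode read ratio; higher means stronger binding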
T5 chain: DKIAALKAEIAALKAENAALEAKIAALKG

4H3625-AA = target: T6, 4H3625-AA; test: two-hybrid library CCmax; conditions: mean of both orientations;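 note: natural log of median RNA to DNA barcode read ratio; higher means stronger binding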
T6 chain: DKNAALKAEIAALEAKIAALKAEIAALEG

4H2873-AA = target: T7, 4H2873-AA; test: two-hybrid library CCmax; conditions: mean of both orientations
T7 chain: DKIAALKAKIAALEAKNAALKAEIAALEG

4H87-AA = target: T8, 4H87-AA; test: two-hybrid library CCmax
T8 chain: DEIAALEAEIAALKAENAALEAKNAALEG

4H775-AA = target: T9, 4H775-AA; test: two-hybrid library CCmax; conditions: mean of both orientations
T9 chain: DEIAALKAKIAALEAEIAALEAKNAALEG

4H390-AA = target: T10, 4H390-AA; test: two-hybrid library CCmax; conditions: mean of both orientations
T10 chain: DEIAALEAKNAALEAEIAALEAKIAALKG

4H278-AA = target: T11, 4H278-AA; test: two-hybrid library CCmax; conditions: mean of both orientations
T11 chain: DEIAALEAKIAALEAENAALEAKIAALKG

4H2985-AA = target: T12, 4H2985-AA; test: two-hybrid library CCmax; conditions: mean of both orientations
T12 chain: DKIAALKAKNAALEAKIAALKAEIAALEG

4H3940-AA = target: T13, 4H3940-AA; test: two-hybrid library CCmax; conditions: mean of both orientations
T13 chain: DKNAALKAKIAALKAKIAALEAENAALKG

4H2705-AA = target: T14, 4H2705-AA; test: two-hybrid library CCmax; conditions: mean of both orientations
T14 chain: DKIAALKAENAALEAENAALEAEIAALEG

4H510-AA = target: T15, 4H510-AA; test: two-hybrid library CCmax; conditions: mean of both orientations
T15 chain: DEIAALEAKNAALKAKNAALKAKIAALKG

4H2687-AA = target: T16, 4H2687-AA; test: two-hybrid library CCmax; conditions: mean of both orientations
T16 chain: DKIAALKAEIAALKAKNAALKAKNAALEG

4H816-AA = target: T17, 4H816-AA; test: two-hybrid library CCmax; conditions: mean of both orientations
T17 chain: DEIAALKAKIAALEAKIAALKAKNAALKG

4H3409-AA = target: T18, 4H3409-AA; test: two-hybrid library CCmax; conditions: mean of both orientations
T18 chain: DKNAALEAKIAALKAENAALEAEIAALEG

4H968-bA = target: T19, 4H968-bA; test: two-hybrid library CCNG1
T19 chain: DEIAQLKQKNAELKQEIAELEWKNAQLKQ

4H780-bA = target: T20, 4H780-bA; test: two-hybrid library CCNG1
T20 chain: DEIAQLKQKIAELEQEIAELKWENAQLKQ

4H346-bA = target: T21, 4H346-bA; test: two-hybrid library CCNG1
T21 chain: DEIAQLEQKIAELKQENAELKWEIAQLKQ

4H953-bA = target: T22, 4H953-bA; test: two-hybrid library CCNG1
T22 chain: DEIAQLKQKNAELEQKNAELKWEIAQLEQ

4H683-bA = target: T23, 4H683-bA; test: two-hybrid library CCNG1
T23 chain: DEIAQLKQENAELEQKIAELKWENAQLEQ

4H457-bA = target: T24, 4H457-bA; test: two-hybrid library CCNG1; conditions: mean of both orientations
T24 chain: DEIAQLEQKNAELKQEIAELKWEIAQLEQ

4H2702-bA = target: T25, 4H2702-bA; test: two-hybrid library CCNG1
T25 chain: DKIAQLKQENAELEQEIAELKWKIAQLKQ

4H3427-bA = target: T26, 4H3427-bA; test: two-hybrid library CCNG1
T26 chain: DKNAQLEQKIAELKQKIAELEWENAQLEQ

4H3926-bA = target: T27, 4H3926-bA; test: two-hybrid library CCNG1
T27 chain: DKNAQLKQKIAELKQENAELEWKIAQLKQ

4H4073-bA = target: T28, 4H4073-bA; test: two-hybrid library CCNG1
T28 chain: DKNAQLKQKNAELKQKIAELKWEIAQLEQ

4H918-bA = target: T29, 4H918-bA; test: two-hybrid library CCNG1
T29 chain: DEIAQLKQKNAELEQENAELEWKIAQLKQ

4H3112-bA = target: T30, 4H3112-bA; test: two-hybrid library CCNG1
T30 chain: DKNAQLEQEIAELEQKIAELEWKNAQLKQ

4H855-bA = target: T31, 4H855-bA; test: two-hybrid library CCNG1
T31 chain: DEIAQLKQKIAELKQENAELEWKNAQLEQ

4H754-bA = target: T32, 4H754-bA; test: two-hybrid library CCNG1
T32 chain: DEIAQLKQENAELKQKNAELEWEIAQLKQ

4H2627-bA = target: T33, 4H2627-bA; test: two-hybrid library CCNG1
T33 chain: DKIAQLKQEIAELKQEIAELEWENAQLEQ

4H797-bA = target: T34, 4H797-bA; test: two-hybrid library CCNG1
T34 chain: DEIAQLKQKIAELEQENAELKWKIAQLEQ

4H2673-bA = target: T35, 4H2673-bA; test: two-hybrid library CCNG1
T35 chain: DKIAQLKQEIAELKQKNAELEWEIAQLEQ

4H575-bA = target: T36, 4H575-bA; test: two-hybrid library CCNG1
T36 chain: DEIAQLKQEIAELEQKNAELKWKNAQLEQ

4H3010-bA = target: T37, 4H3010-bA; test: two-hybrid library CCNG1
T37 chain: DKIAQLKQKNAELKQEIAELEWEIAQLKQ

P4bH1 = target: T38, P4bH1; test: two-hybrid library CCNG1
T38 chain: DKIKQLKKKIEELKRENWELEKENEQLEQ

P8bH1 = target: T39, P8bH1; test: two-hybrid library CCNG1
T39 chain: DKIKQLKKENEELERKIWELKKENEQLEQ

P7bH1 = target: T40, P7bH1; test: two-hybrid library CCNG1
T40 chain: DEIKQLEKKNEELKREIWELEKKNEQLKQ

P9bH1 = target: T41, P9bH1; test: two-hybrid library CCNG1
T41 chain: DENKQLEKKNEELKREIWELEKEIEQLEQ

P5bH1 = target: T42, P5bH1; test: two-hybrid library CCNG1
T42 chain: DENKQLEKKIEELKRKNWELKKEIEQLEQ

P6bH1 = target: T43, P6bH1; test: two-hybrid library CCNG1
T43 chain: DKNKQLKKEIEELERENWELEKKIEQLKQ

4H3297-bN = target: T44, 4H3297-bN; test: two-hybrid library CCNG1
T44 chain: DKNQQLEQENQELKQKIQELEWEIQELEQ

4H2760-bN = target: T45, 4H2760-bN; test: two-hybrid library CCNG1
T45 chain: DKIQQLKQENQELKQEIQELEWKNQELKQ

4H56-bN = target: T46, 4H56-bN; test: two-hybrid library CCNG1
T46 chain: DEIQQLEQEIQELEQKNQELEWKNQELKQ

4H2859-bN = target: T47, 4H2859-bN; test: two-hybrid library CCNG1
T47 chain: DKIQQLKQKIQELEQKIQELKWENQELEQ

4H349-bN = target: T48, 4H349-bN; test: two-hybrid library CCNG1
T48 chain: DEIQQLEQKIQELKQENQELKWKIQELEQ

4H3381-bN = target: T49, 4H3381-bN; test: two-hybrid library CCNG1
T49 chain: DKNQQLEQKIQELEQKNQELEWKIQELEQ

4H730-bN = target: T50, 4H730-bN; test: two-hybrid library CCNG1
T50 chain: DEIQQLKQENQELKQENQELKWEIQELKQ

4H796-bN = target: T51, 4H796-bN; test: two-hybrid library CCNG1
T51 chain: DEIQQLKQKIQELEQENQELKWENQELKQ

4H2585-bN = target: T52, 4H2585-bN; test: two-hybrid library CCNG1
T52 chain: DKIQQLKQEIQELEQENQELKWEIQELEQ

4H3364-bN = target: T53, 4H3364-bN; test: two-hybrid library CCNG1
T53 chain: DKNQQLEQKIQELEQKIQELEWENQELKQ

4H346-bN = target: T54, 4H346-bN; test: two-hybrid library CCNG1
T54 chain: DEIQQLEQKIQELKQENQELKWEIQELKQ

4H2931-bN = target: T55, 4H2931-bN; test: two-hybrid library CCNG1
T55 chain: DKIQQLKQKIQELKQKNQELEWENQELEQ

4H949-bN = target: T56, 4H949-bN; test: two-hybrid library CCNG1
T56 chain: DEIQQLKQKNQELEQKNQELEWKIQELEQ

4H3041-bN = target: T57, 4H3041-bN; test: two-hybrid library CCNG1
T57 chain: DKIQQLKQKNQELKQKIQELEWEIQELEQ

4H932-bN = target: T58, 4H932-bN; test: two-hybrid library CCNG1
T58 chain: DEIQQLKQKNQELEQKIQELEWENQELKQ

4H264-bN = target: T59, 4H264-bN; test: two-hybrid library CCNG1
T59 chain: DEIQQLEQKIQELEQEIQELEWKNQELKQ

P9A-bA = target: T60, P9A-bA; test: two-hybrid library CCNG1
T60 chain: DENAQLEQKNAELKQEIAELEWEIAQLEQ

P8A-bA = target: T61, P8A-bA; test: two-hybrid library CCNG1
T61 chain: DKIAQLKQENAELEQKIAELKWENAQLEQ

P7A-bA = target: T62, P7A-bA; test: two-hybrid library CCNG1
T62 chain: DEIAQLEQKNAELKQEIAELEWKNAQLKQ

P5A-bA = target: T63, P5A-bA; test: two-hybrid library CCNG1
T63 chain: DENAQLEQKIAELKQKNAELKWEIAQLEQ

P6A-bA = target: T64, P6A-bA; test: two-hybrid library CCNG1
T64 chain: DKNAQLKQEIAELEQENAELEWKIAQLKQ

Binder: DKIAALKAEIAALKAENAALEAKIAALKG [4H2646-AA]
- interaction score (4H2758-AA): -0.75
- interaction score (4H3134-AA): 1.28
- interaction score (4H2646-AA): 1.66
- interaction score (4H3625-AA): -0.363
- interaction score (4H2873-AA): 1.89
- interaction score (4H87-AA): 2.43
- interaction score (4H775-AA): -0.478
- interaction score (4H390-AA): 1.18
- interaction score (4H278-AA): 0.745
- interaction score (4H2985-AA): -0.411
- interaction score (4H3940-AA): -1.27
- interaction score (4H2705-AA): -1.19
- interaction score (4H510-AA): 2.02
- interaction score (4H2687-AA): 1.36
- interaction score (4H816-AA): -1.37
- interaction score (4H3409-AA): -0.0843

Binder: DKIAQLKQEIAELKQEIAELEWENAQLEQ [4H2627-bA]
- interaction score (4H968-bA): -0.842
- interaction score (4H780-bA): -0.421
- interaction score (4H346-bA): -1.21
- interaction score (4H953-bA): -0.555
- interaction score (4H683-bA): -0.856
- interaction score (4H457-bA): -0.508
- interaction score (4H2702-bA): 0.286
- interaction score (4H3427-bA): 1.03
- interaction score (4H3926-bA): -0.308
- interaction score (4H4073-bA): 1.07
- interaction score (4H918-bA): -1.03
- interaction score (4H3112-bA): 0.764
- interaction score (4H855-bA): -1.42
- interaction score (4H754-bA): -1.42
- interaction score (4H2627-bA): 0.441
- interaction score (4H797-bA): -1.1
- interaction score (4H2673-bA): -0.531
- interaction score (4H575-bA): 0.64
- interaction score (4H3010-bA): -0.0123

Binder: DKIKQLKKKIEELKRENWELEKENEQLEQ [P4bH1]
- interaction score (P4bH1): -1.18
- interaction score (P8bH1): -0.993
- interaction score (P7bH1): -0.994
- interaction score (P9bH1): -0.46
- interaction score (P5bH1): -1.09
- interaction score (P6bH1): -0.487

Binder: DKIQQLKQEIQELEQENQELKWEIQELEQ [4H2585-bN]
- interaction score (4H3297-bN): -0.64
- interaction score (4H2760-bN): -1.01
- interaction score (4H56-bN): -0.978
- interaction score (4H2859-bN): 0.161
- interaction score (4H349-bN): 1.61
- interaction score (4H3381-bN): -2.06
- interaction score (4H730-bN): -0.949
- interaction score (4H796-bN): -0.881
- interaction score (4H2585-bN): -0.804
- interaction score (4H3364-bN): -0.855
- interaction score (4H346-bN): 2.36
- interaction score (4H2931-bN): -0.905
- interaction score (4H949-bN): -0.975
- interaction score (4H3041-bN): -0.321
- interaction score (4H932-bN): -1.52
- interaction score (4H264-bN): -0.828

Now from value to binder:

- interaction score (P8mS): -1.02
- interaction score (P9mS): -0.61
Binder: DKISQLKEENQQLEQKIQQLKEENSQLEY [P8mS]

- interaction score (P8bH1): 0.944
- interaction score (P7bH1): -2.02
- interaction score (P9bH1): -0.9
- interaction score (P5bH1): -0.609
- interaction score (P6bH1): 1.31
Binder: DENKQLEKKIEELKRKNWELKKEIEQLEQ [P5bH1]

- interaction score (P9A-bA): -0.7
- interaction score (P8A-bA): 0.0376
- interaction score (P7A-bA): -1.32
- interaction score (P5A-bA): -1.22
- interaction score (P6A-bA): 2.33
Binder: DENAQLEQKIAELKQKNAELKWEIAQLEQ [P5A-bA]
